According to article PMC8013792, “Bacterial protein domains with a novel Ig‐like fold target human CEACAM receptors” (The EMBO Journal, 2021):

B1: IgSF (IgI3) domain of β protein, recombinant, biotinylated [modified: biotin, C-terminal] [Streptococcus agalactiae (GBS)] / recombinant CEACAM1 N-terminal domain, unglycosylated, 6xHis tagged [human] (parent)
chain 1: MAQLTTESMPFNVAEGKEVLLLVHNLPQQLFGYSWYKGERVDGNRQIVGYAIGTQQATPGPANSGRETIYPNASLLIQNVTQNDTGFYTLQVIKSDLVNEEATGQFHVY
chain 2: ANENNQQKIELTVSPENITVYEGEDVKFTVTAKSDSKTTLDFSDLLTKYNPSVSDRISTNYKTNTDNHKIAEITIKNLKLNESQTVTLKAKDDSGNVVEKTFTITVQKKEEKQLPSTGGS

Variants of: B1
Test: flow cytometry on coated dynabeads
Conditions: with recombinant CEACAM1 N-terminal domain, parent: 390, read off a plot

Row | Variant | response (Geometric MFI)
1 | chain 2 L45A | 350
2 | chain 2 S52A | 320
